To fix the notation:
B1: NLV3 TCR beta chain (CDR3β only) (parent)
chain: ASSPTGGSPSPLH
partner: MLVPMVATV
B2: NLV3 TCR beta chain (CDR3β only) (parent)
chain: ASSPTGGSPSPLH
partner: NLCPMVATV

One assay covers variants of B1. As to the kind of experiment: T-Switch: Jurkat TCRβ−/− cells expressing a CDR3 saturation-mutagenesis library, stained with two peptide-HLA-A*02:01 tetramers (original and novel peptide) plus anti-CD3, FACS-sorted into four gates, gDNA sequenced. As to conditions: with HLA-A*02:01 with peptide … (NLV 3-1, the original bait), tetramers 1 µg/mL, 30 min on ice, DP and SW gates expanded about 10 days between rounds ('two to three rounds of selection' in the Methods), gate SP: higher = more of the variant in the gate that binds the original peptide and not the novel one = retained original binding. Fold enrichment of the CDR3 variant in one FACS gate of a two-tetra, unresolved parent, parent is a CDR3 fragment, scale: fold enrichment, numbering: sequential-on-construct, sequence ….
Take […] (CDR3 as printed); H13P derived by comparing it with the table's wild-type CDR3 ASSPTGGSPSPLH: the enrichment is 0.

[…] (CDR3 as printed); S8M derived by comparing it with the table's wild-type CDR3 ASSPTGGSPSPLH: the enrichment worked out at 0.

Turning to […] (CDR3 as printed); S2E derived by comparing it with the table's wild-type CDR3 ASSPTGGSPSPLH, the enrichment amounted to 0.

On to […] (CDR3 as printed); P11N derived by comparing it with the table's wild-type CDR3 ASSPTGGSPSPLH, for which the enrichment was 0.

Consider […] (CDR3 as printed); G6M derived by comparing it with the table's wild-type CDR3 ASSPTGGSPSPLH, for which the enrichment was found to be 0.

Consider […] (CDR3 as printed); S3D derived by comparing it with the table's wild-type CDR3 ASSPTGGSPSPLH, for which the enrichment came out at 3.32.

For […] (CDR3 as printed); P9N derived by comparing it with the table's wild-type CDR3 ASSPTGGSPSPLH, the enrichment was 0.

For […] (CDR3 as printed); S3H derived by comparing it with the table's wild-type CDR3 ASSPTGGSPSPLH, the enrichment amounted to 0.783.

Take […] (CDR3 as printed); H13V derived by comparing it with the table's wild-type CDR3 ASSPTGGSPSPLH: the enrichment came to 5.71.

In the case of […] (CDR3 as printed); T5G derived by comparing it with the table's wild-type CDR3 ASSPTGGSPSPLH, the enrichment is 0.

Consider […] (CDR3 as printed); P9H derived by comparing it with the table's wild-type CDR3 ASSPTGGSPSPLH, for which the enrichment stood at 0.

For the variant […] (CDR3 as printed); T5E derived by comparing it with the table's wild-type CDR3 ASSPTGGSPSPLH, the enrichment was 0.

For the variant […] (CDR3 as printed); P4Y derived by comparing it with the table's wild-type CDR3 ASSPTGGSPSPLH, the enrichment amounted to 1.03.

Turning to […] (CDR3 as printed); S3K derived by comparing it with the table's wild-type CDR3 ASSPTGGSPSPLH, the enrichment was determined as 0.

Regarding […] (CDR3 as printed); H13A derived by comparing it with the table's wild-type CDR3 ASSPTGGSPSPLH, the enrichment is 6.12.

Regarding […] (CDR3 as printed); S8R derived by comparing it with the table's wild-type CDR3 ASSPTGGSPSPLH, the enrichment amounted to 0.

As to […] (CDR3 as printed); S10F derived by comparing it with the table's wild-type CDR3 ASSPTGGSPSPLH, the enrichment came to 0.

Turning to […] (CDR3 as printed); T5N derived by comparing it with the table's wild-type CDR3 ASSPTGGSPSPLH, the enrichment was 0.

Consider […] (CDR3 as printed); S3G derived by comparing it with the table's wild-type CDR3 ASSPTGGSPSPLH, for which the enrichment is 9.71.

Consider […] (CDR3 as printed); S3A derived by comparing it with the table's wild-type CDR3 ASSPTGGSPSPLH, for which the enrichment amounted to 9.82.

Regarding […] (CDR3 as printed); A1H derived by comparing it with the table's wild-type CDR3 ASSPTGGSPSPLH, the enrichment is 0.

For the variant […] (CDR3 as printed); S3R derived by comparing it with the table's wild-type CDR3 ASSPTGGSPSPLH, the enrichment was 0.

In the case of […] (CDR3 as printed); P4M derived by comparing it with the table's wild-type CDR3 ASSPTGGSPSPLH, the enrichment was found to be 4.15.

Turning to […] (CDR3 as printed); T5Q derived by comparing it with the table's wild-type CDR3 ASSPTGGSPSPLH, the enrichment was determined as 0.

Turning to […] (CDR3 as printed); P9S derived by comparing it with the table's wild-type CDR3 ASSPTGGSPSPLH, the enrichment is 0.568.

As for […] (CDR3 as printed); P11Y derived by comparing it with the table's wild-type CDR3 ASSPTGGSPSPLH, the enrichment came to 1.78.

Turning to […] (CDR3 as printed); A1F derived by comparing it with the table's wild-type CDR3 ASSPTGGSPSPLH, the enrichment stood at 0.

For the variant […] (CDR3 as printed); H13N derived by comparing it with the table's wild-type CDR3 ASSPTGGSPSPLH, the enrichment was found to be 7.17.

For […] (CDR3 as printed); A1Q derived by comparing it with the table's wild-type CDR3 ASSPTGGSPSPLH, the enrichment came out at 0.

Take […] (CDR3 as printed); G6S derived by comparing it with the table's wild-type CDR3 ASSPTGGSPSPLH: the enrichment worked out at 10.5.

Regarding […] (CDR3 as printed); S10H derived by comparing it with the table's wild-type CDR3 ASSPTGGSPSPLH, the enrichment worked out at 0.

As for […] (CDR3 as printed); L12C derived by comparing it with the table's wild-type CDR3 ASSPTGGSPSPLH, the enrichment is 4.3.

As to […] (CDR3 as printed); A1T derived by comparing it with the table's wild-type CDR3 ASSPTGGSPSPLH, the enrichment worked out at 0.

Turning to […] (CDR3 as printed); A1N derived by comparing it with the table's wild-type CDR3 ASSPTGGSPSPLH, the enrichment worked out at 0.

Turning to […] (CDR3 as printed); L12Y derived by comparing it with the table's wild-type CDR3 ASSPTGGSPSPLH, the enrichment was determined as 0.

As to […] (CDR3 as printed); L12P derived by comparing it with the table's wild-type CDR3 ASSPTGGSPSPLH, the enrichment worked out at 0.

For the variant […] (CDR3 as printed); L12K derived by comparing it with the table's wild-type CDR3 ASSPTGGSPSPLH, the enrichment was found to be 0.

Take […] (CDR3 as printed); S8A derived by comparing it with the table's wild-type CDR3 ASSPTGGSPSPLH: the enrichment came out at 11.2.

For the variant […] (CDR3 as printed); H13C derived by comparing it with the table's wild-type CDR3 ASSPTGGSPSPLH, the enrichment was found to be 6.06.

Consider […] (CDR3 as printed); H13G derived by comparing it with the table's wild-type CDR3 ASSPTGGSPSPLH, for which the enrichment came out at 0.848.

In the case of […] (CDR3 as printed); T5I derived by comparing it with the table's wild-type CDR3 ASSPTGGSPSPLH, the enrichment came out at 11.6.

As for […] (CDR3 as printed); S2I derived by comparing it with the table's wild-type CDR3 ASSPTGGSPSPLH, the enrichment turned out to be 0.

For […] (CDR3 as printed); P9I derived by comparing it with the table's wild-type CDR3 ASSPTGGSPSPLH, the enrichment was 0.

On to […] (CDR3 as printed); P11L derived by comparing it with the table's wild-type CDR3 ASSPTGGSPSPLH, for which the enrichment was 2.19.

Take […] (CDR3 as printed); S8K derived by comparing it with the table's wild-type CDR3 ASSPTGGSPSPLH: the enrichment came out at 0.

In the case of […] (CDR3 as printed); P4W derived by comparing it with the table's wild-type CDR3 ASSPTGGSPSPLH, the enrichment was 0.

Regarding […] (CDR3 as printed); A1V derived by comparing it with the table's wild-type CDR3 ASSPTGGSPSPLH, the enrichment was found to be 0.479.

As to […] (CDR3 as printed); G6V derived by comparing it with the table's wild-type CDR3 ASSPTGGSPSPLH, the enrichment came out at 0.

Regarding […] (CDR3 as printed); A1E derived by comparing it with the table's wild-type CDR3 ASSPTGGSPSPLH, the enrichment turned out to be 0.

In the case of […] (CDR3 as printed); H13E derived by comparing it with the table's wild-type CDR3 ASSPTGGSPSPLH, the enrichment stood at 4.01.

For the variant […] (CDR3 as printed); A1D derived by comparing it with the table's wild-type CDR3 ASSPTGGSPSPLH, the enrichment is 0.

As to […] (CDR3 as printed); L12V derived by comparing it with the table's wild-type CDR3 ASSPTGGSPSPLH, the enrichment amounted to 0.

On to […] (CDR3 as printed); P9E derived by comparing it with the table's wild-type CDR3 ASSPTGGSPSPLH, for which the enrichment turned out to be 0.

Regarding […] (CDR3 as printed); P9V derived by comparing it with the table's wild-type CDR3 ASSPTGGSPSPLH, the enrichment was 3.5.

For the variant […] (CDR3 as printed); S3W derived by comparing it with the table's wild-type CDR3 ASSPTGGSPSPLH, the enrichment is 0.

As for […] (CDR3 as printed); S3V derived by comparing it with the table's wild-type CDR3 ASSPTGGSPSPLH, the enrichment is 0.

Consider […] (CDR3 as printed); P11I derived by comparing it with the table's wild-type CDR3 ASSPTGGSPSPLH, for which the enrichment is 1.23.

With […] (CDR3 as printed); P9W derived by comparing it with the table's wild-type CDR3 ASSPTGGSPSPLH, the enrichment came to 0.

Regarding […] (CDR3 as printed); S2G derived by comparing it with the table's wild-type CDR3 ASSPTGGSPSPLH, the enrichment came to 1.01.

Consider […] (CDR3 as printed); T5H derived by comparing it with the table's wild-type CDR3 ASSPTGGSPSPLH, for which the enrichment was determined as 1.12.

On to […] (CDR3 as printed); P4E derived by comparing it with the table's wild-type CDR3 ASSPTGGSPSPLH, for which the enrichment worked out at 3.03.

Turning to […] (CDR3 as printed); P11R derived by comparing it with the table's wild-type CDR3 ASSPTGGSPSPLH, the enrichment came to 9.69.

[…] (CDR3 as printed); S3Y derived by comparing it with the table's wild-type CDR3 ASSPTGGSPSPLH: the enrichment turned out to be 0.

Take […] (CDR3 as printed); A1G derived by comparing it with the table's wild-type CDR3 ASSPTGGSPSPLH: the enrichment was 5.7.

As for […] (CDR3 as printed); S2N derived by comparing it with the table's wild-type CDR3 ASSPTGGSPSPLH, the enrichment was 0.

On to […] (CDR3 as printed); G7A derived by comparing it with the table's wild-type CDR3 ASSPTGGSPSPLH, for which the enrichment worked out at 0.

Take […] (CDR3 as printed); S8G derived by comparing it with the table's wild-type CDR3 ASSPTGGSPSPLH: the enrichment worked out at 0.

On to […] (CDR3 as printed); G7F derived by comparing it with the table's wild-type CDR3 ASSPTGGSPSPLH, for which the enrichment was determined as 0.

Turning to […] (CDR3 as printed); S10G derived by comparing it with the table's wild-type CDR3 ASSPTGGSPSPLH, the enrichment amounted to 14.9.

On to […] (CDR3 as printed); P9R derived by comparing it with the table's wild-type CDR3 ASSPTGGSPSPLH, for which the enrichment was found to be 0.

With […] (CDR3 as printed); P4N derived by comparing it with the table's wild-type CDR3 ASSPTGGSPSPLH, the enrichment worked out at 1.25.

As to […] (CDR3 as printed); G7T derived by comparing it with the table's wild-type CDR3 ASSPTGGSPSPLH, the enrichment was 0.

Turning to […] (CDR3 as printed); T5C derived by comparing it with the table's wild-type CDR3 ASSPTGGSPSPLH, the enrichment was 0.

For […] (CDR3 as printed); S10T derived by comparing it with the table's wild-type CDR3 ASSPTGGSPSPLH, the enrichment came out at 0.

As to […] (CDR3 as printed); S3T derived by comparing it with the table's wild-type CDR3 ASSPTGGSPSPLH, the enrichment is 10.9.

With […] (CDR3 as printed); S3E derived by comparing it with the table's wild-type CDR3 ASSPTGGSPSPLH, the enrichment stood at 0.

In the case of […] (CDR3 as printed); T5S derived by comparing it with the table's wild-type CDR3 ASSPTGGSPSPLH, the enrichment was determined as 0.

Take […] (CDR3 as printed); A1Y derived by comparing it with the table's wild-type CDR3 ASSPTGGSPSPLH: the enrichment stood at 0.

For […] (CDR3 as printed); G6E derived by comparing it with the table's wild-type CDR3 ASSPTGGSPSPLH, the enrichment was 0.

Consider […] (CDR3 as printed); P11V derived by comparing it with the table's wild-type CDR3 ASSPTGGSPSPLH, for which the enrichment amounted to 0.

In the case of […] (CDR3 as printed); P9M derived by comparing it with the table's wild-type CDR3 ASSPTGGSPSPLH, the enrichment was 0.

Variants of B2 are the subject of another assay. Described as above. As to conditions: with HLA-A*02:01 with peptide … (NLV 2-1, the novel peptide), tetramers 1 µg/mL, 30 min on ice, SP, DP and SW gates expanded about 10 days between rounds ('two to three rounds of selection' in the Methods), gate SW: higher = more of the variant in the gate that binds the novel peptide and not the original one = switched binding. Fold enrichment of the CDR3 variant in one FACS gate of a two-tetramer stain, unresolved parent, parent is a CDR3 fragment, scale: fold enrichment, numbering: sequential-on-construct, sequence starts at 1.
Regarding […] (CDR3 as printed); P11M derived by comparing it with the table's wild-type CDR3 ASSPTGGSPSPLH, the enrichment came out at 0.

For […] (CDR3 as printed); A1L derived by comparing it with the table's wild-type CDR3 ASSPTGGSPSPLH, the enrichment stood at 0.

With […] (CDR3 as printed); T5K derived by comparing it with the table's wild-type CDR3 ASSPTGGSPSPLH, the enrichment turned out to be 0.

(Values after PMC13397619.)
